The chains are these.
B1: PRT-353 (protein)
chain: MSQTEDSESLQRLRDIEDFQAEKEMQNVVYTKWLDGVDVKDHDFRKIVDGNSAYYATPLLNGRGWYDINKDFNRDSDKCAAAVAANMFHYWLDINRDNVDRFLRQNPEKHGIIELPDGQLKLSDFLNTYESDHGYRDKSKLFDFISENFNGPVWTDKLLDNYINGYAYNSKYGRTIEDPTKNTSKINFFKEVFNEKILTNNHSIRNQNEFSVLLIEALYTGKAIGLSYGPAGLRHGLGHIISVWGADLDADGNVVAIYVTDSDDKKLTIGDERVGLKRYKISTDDENRLRLTAYEETHNTGGQVRGLWTLDTGKYAWADYFDKTEQTGTDQAEQ
B2: PRT-361 (protein)
chain: B1 chain with E24K, M25K, W65F, I94R, H133D, S170Y, G236S, N287G, V304I, Y315Q
B3: PRT-370 (protein)
chain: B1 chain with E24K, M25D, S76N, I94R, H133D, S170Y, P179S, G236S, N287G, Y315Q
B4: PRT-362 (protein)
chain: B1 chain with E24K, M25K, W65F, I94R, H133D, N287G, V304I, Y315Q
B5: PRT-355 (protein)
chain: B1 chain with E24K, S52E, W65F, S170Y, T175L, F210L, I215S, L233T, G236S, V304I
B6: PRT-356 (protein)
chain: B1 chain with M25K, W65F, I94R, H133D, E147N, S170Y, I215S, G236S, N287G, Y315Q
B7: PRT-348 (protein)
chain: B1 chain with E24K, M25D, S52I, S170Y, G236S
B8: PRT-347 (protein)
chain: B1 chain with E147N, S170Y, I215S, G236S
B9: PRT-346 (protein)
chain: B1 chain with W65F, E147N, S170Y, I215S, G236S
B10: PRT-354 (protein)
chain: B1 chain with E24K, S52E, W65F, S170Y, F210L, I215S, G236S, V304I
B11: PRT-363 (protein)
chain: B1 chain with M25K, I94R, H133D, N287G, Y315Q
B12: PRT-345 (protein)
chain: MTITSVWTKGVTPPTPEDFRENNEDVLHAPYLANQGWYDITKAFDGKDNLLCGAATAGNMLHWWFDQNKEEIERYLKKHPEKQKIIFNNQELFDVKAAIDTKDSQTNSKLFDYFRDKAFPNLSARQLGVMPDLVLDMFINGYYLNLGKTQSTDVNRPYQDKDKRGGIFDAVFTRGDQTTLLTARHDLKNKGLNEISDLIKQELTEGKALALSHTYANVSINHVINLWGADFDAEGELEAIYVTDSDANPSIGMKKYFVGRNAHGKVAISAKKIEGDNIGAQVLGLFTLSTGQDIWQKLS
B13: PRT-338 (protein)
chain: B12 chain with D112N, E236N, P249A, T290L
B14: PRT-339 (protein)
chain: B12 chain with N88G, E236N, P249A, I294Q
B15: PRT-340 (protein)
chain: B12 chain with E236N, P249A, I294Q
B16: PRT-369 (protein)
chain: MSQTEDSESLQRLRDIEDFQAEKKDQNVVYTKWLDGVDVKDHDFRKIVDGNIAYYATPLLNGRGLYDINKDFNRDNDKCAAAVAANMFHYWLDRNRDNVDRFLRQNPEKHGIIELPDGQLKLSDFLNTYESDDGYRDKSKLFDFISENFNGPVWTDKLLDNYINGYAYNYKYGRTIEDSTKNTSKINFFKEVFNEKILTNNHSIRNQNELSVLLSEALYTGKAIGLSYGPAGLRHSLGHIISVWGADLDADGNVVAIYVTDSDDKKLTIGDERVGLKRYKISTDDEGRLRLTAYEETHNTGGQVRGLWTLDTGKQAWADYFDKTEQTGTDQAEQ
B17: PRT-364 (protein)
chain: B16 chain with D25K, I52E, L65F, N76S, S179P, V304I
B18: PRT-371 (protein)
chain: B16 chain with D25K, I52S, L65F, L210F, S215I, V304I

Changes are numbered by the printed parent chain.

The values that follow come from patent publication US20250027068.

The data set deals with pooled human IgG (human IgG1,2,3 and 4).
The protein B1 had an Enzyme Activity Endpoint Assay (purified): Fab′2 of 101 ng/µL, an Enzyme Activity Endpoint Assay (purified): Fc of 259 ng/µL, an Enzyme Activity Endpoint Assay (purified): IgG of 189 ng/µL and an Enzyme Activity Endpoint Assay (purified): scIgG of 767 ng/µL.

B2 displayed an Enzyme Activity Endpoint Assay (purified): Fab′2 of 86 ng/µL, an Enzyme Activity Endpoint Assay (purified): Fc of 243 ng/µL, an Enzyme Activity Endpoint Assay (purified): IgG of 130 ng/µL and an Enzyme Activity Endpoint Assay (purified): scIgG of 753 ng/µL.

B3: the Enzyme Activity Endpoint Assay (purified): Fab′2 worked out at 654 ng/µL, the Enzyme Activity Endpoint Assay (purified): Fc was determined as 348 ng/µL, the Enzyme Activity Endpoint Assay (purified): IgG was found to be 0 ng/µL and the Enzyme Activity Endpoint Assay (purified): scIgG was determined as 288 ng/µL.

In turn, B4 returned an Enzyme Activity Endpoint Assay (purified): Fab′2 of 720 ng/µL, an Enzyme Activity Endpoint Assay (purified): Fc of 225 ng/µL, an Enzyme Activity Endpoint Assay (purified): IgG of 0 ng/µL and an Enzyme Activity Endpoint Assay (purified): scIgG of 299 ng/µL.

As to B5, the Enzyme Activity Endpoint Assay (purified): Fab′2 amounted to 952 ng/µL, the Enzyme Activity Endpoint Assay (purified): Fc amounted to 500 ng/µL, the Enzyme Activity Endpoint Assay (purified): IgG amounted to 0 ng/µL and the Enzyme Activity Endpoint Assay (purified): scIgG was determined as 367 ng/µL.

Turning to B6, the Enzyme Activity Endpoint Assay (purified): Fab′2 is 780 ng/µL, the Enzyme Activity Endpoint Assay (purified): Fc came to 418 ng/µL, the Enzyme Activity Endpoint Assay (purified): IgG worked out at 0 ng/µL and the Enzyme Activity Endpoint Assay (purified): scIgG worked out at 289 ng/µL.

Consider B7, for which the Enzyme Activity Endpoint Assay (purified): Fab′2 was determined as 736 ng/µL, the Enzyme Activity Endpoint Assay (purified): Fc amounted to 415 ng/µL, the Enzyme Activity Endpoint Assay (purified): IgG turned out to be 0 ng/µL and the Enzyme Activity Endpoint Assay (purified): scIgG came out at 325 ng/µL.

For B8, the Enzyme Activity Endpoint Assay (purified): Fab′2 was 769 ng/µL, the Enzyme Activity Endpoint Assay (purified): Fc was determined as 397 ng/µL, the Enzyme Activity Endpoint Assay (purified): IgG is 0 ng/µL and the Enzyme Activity Endpoint Assay (purified): scIgG was determined as 309 ng/µL.

B9 had an Enzyme Activity Endpoint Assay (purified): Fab′2 of 607 ng/µL, an Enzyme Activity Endpoint Assay (purified): Fc of 217 ng/µL, an Enzyme Activity Endpoint Assay (purified): IgG of 0 ng/µL and an Enzyme Activity Endpoint Assay (purified): scIgG of 246 ng/µL.

Turning to B10, the Enzyme Activity Endpoint Assay (purified): Fab′2 worked out at 618 ng/µL, the Enzyme Activity Endpoint Assay (purified): Fc is 213 ng/µL, the Enzyme Activity Endpoint Assay (purified): IgG turned out to be 0 ng/µL and the Enzyme Activity Endpoint Assay (purified): scIgG turned out to be 233 ng/µL.

B11 had an Enzyme Activity Endpoint Assay (purified): Fab′2 of 838 ng/µL, an Enzyme Activity Endpoint Assay (purified): Fc of 462 ng/µL, an Enzyme Activity Endpoint Assay (purified): IgG of 0 ng/µL and an Enzyme Activity Endpoint Assay (purified): scIgG of 354 ng/µL.

Regarding B12, the Enzyme Activity Endpoint Assay (purified): Fab′2 worked out at 61 ng/µL, the Enzyme Activity Endpoint Assay (purified): Fc came out at 248 ng/µL, the Enzyme Activity Endpoint Assay (purified): IgG is 123 ng/µL and the Enzyme Activity Endpoint Assay (purified): scIgG worked out at 772 ng/µL.

Consider B13, for which the Enzyme Activity Endpoint Assay (purified): Fab′2 came out at 766 ng/µL, the Enzyme Activity Endpoint Assay (purified): Fc worked out at 203 ng/µL, the Enzyme Activity Endpoint Assay (purified): IgG came to 0 ng/µL and the Enzyme Activity Endpoint Assay (purified): scIgG came to 287 ng/µL.

For B14, the Enzyme Activity Endpoint Assay (purified): Fab′2 came out at 721 ng/µL, the Enzyme Activity Endpoint Assay (purified): Fc came to 167 ng/µL, the Enzyme Activity Endpoint Assay (purified): IgG worked out at 0 ng/µL and the Enzyme Activity Endpoint Assay (purified): scIgG worked out at 288 ng/µL.

On to B15, for which the Enzyme Activity Endpoint Assay (purified): Fab′2 was 692 ng/µL, the Enzyme Activity Endpoint Assay (purified): Fc worked out at 374 ng/µL, the Enzyme Activity Endpoint Assay (purified): IgG was determined as 0 ng/µL and the Enzyme Activity Endpoint Assay (purified): scIgG is 307 ng/µL.

The protein B16 came in with an Enzyme Activity Endpoint Assay (purified): Fab′2 of 259 ng/µL, an Enzyme Activity Endpoint Assay (purified): Fc of 284 ng/µL, an Enzyme Activity Endpoint Assay (purified): IgG of 123 ng/µL and an Enzyme Activity Endpoint Assay (purified): scIgG of 445 ng/µL.

Take B17: the Enzyme Activity Endpoint Assay (purified): Fab′2 amounted to 863 ng/µL, the Enzyme Activity Endpoint Assay (purified): Fc came to 439 ng/µL, the Enzyme Activity Endpoint Assay (purified): IgG was 0 ng/µL and the Enzyme Activity Endpoint Assay (purified): scIgG came to 334 ng/µL.

Regarding B18, the Enzyme Activity Endpoint Assay (purified): Fab′2 was 623 ng/µL, the Enzyme Activity Endpoint Assay (purified): Fc was 373 ng/µL, the Enzyme Activity Endpoint Assay (purified): IgG was determined as 0 ng/µL and the Enzyme Activity Endpoint Assay (purified): scIgG came out at 295 ng/µL.
